Test results taken from PMC2728795.

Biological target: F-actin (freshly polymerized actin) (UniProt P68135)
Assay: co-sedimentation

percent bound at 5 µM F-actin: 10%
Substance: GST(541–605,Δ25)PRG (from UniProt O15085 541-605) (domain or fragment)
